The source of these data is paper doi:10.1101/2020.10.23.350348.

For the assay, the target named is transferrin receptor (UniProt P02786). Briefly: SPR. For orientation: In SPR one partner is held on a chip, and binding of the other changes the refractive index at the surface.
Chain of transferrin receptor (P02786 whole entry): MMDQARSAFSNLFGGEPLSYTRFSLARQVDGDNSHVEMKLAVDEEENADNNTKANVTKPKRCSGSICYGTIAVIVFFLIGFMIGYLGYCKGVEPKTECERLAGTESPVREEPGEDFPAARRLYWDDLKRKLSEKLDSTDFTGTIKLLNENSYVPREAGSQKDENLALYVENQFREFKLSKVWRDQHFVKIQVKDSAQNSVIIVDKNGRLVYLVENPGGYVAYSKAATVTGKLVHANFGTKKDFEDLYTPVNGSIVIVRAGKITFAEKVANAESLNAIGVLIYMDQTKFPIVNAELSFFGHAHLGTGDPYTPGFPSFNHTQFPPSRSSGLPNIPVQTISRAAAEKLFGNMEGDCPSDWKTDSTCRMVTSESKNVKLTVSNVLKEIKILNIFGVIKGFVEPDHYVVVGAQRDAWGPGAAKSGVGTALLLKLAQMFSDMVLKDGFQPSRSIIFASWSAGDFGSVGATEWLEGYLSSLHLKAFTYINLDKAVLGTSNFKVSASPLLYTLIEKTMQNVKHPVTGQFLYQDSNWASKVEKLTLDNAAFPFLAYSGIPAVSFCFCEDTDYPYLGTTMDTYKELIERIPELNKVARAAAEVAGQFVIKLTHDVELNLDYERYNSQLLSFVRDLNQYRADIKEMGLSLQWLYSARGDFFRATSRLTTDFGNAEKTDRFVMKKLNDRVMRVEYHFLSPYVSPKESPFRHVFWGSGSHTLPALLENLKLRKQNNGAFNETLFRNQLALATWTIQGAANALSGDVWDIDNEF

As usually defined, the Kd is the equilibrium constant for the complex coming apart. A low value points to a tighter complex. Regarding “SARS-CoV-2 spike protein (from UniProt P0DTC2 14-1273) (natural protein)”, the Kd amounted to 2.95 nM.
